Results published in the Immune Epitope Database (IEDB).
Each block holds one sequence with its values, some of them ahead of it.

Columns and labels:
HLA-B*35:01 = assay: IEDB peptide-MHC binding, purified MHC/competitive/radioactivity; filed as Kd, often an IC50 or EC50 that approximates it; ≥ and ≤ were set here for values at or beyond the usual limits of such assays
HLA-B*51:01 = assay: as above
HLA-B*53:01 = assay: as above
HLA-B*07:02 = assay: as above
HLA-A*26:01 = assay: as above
HLA-A*32:01 = assay: as above
HLA-A*30:01 = assay: as above
HLA-A*01:01 [1] = assay: IEDB peptide-MHC binding, purified MHC/direct/fluorescence; filed as Kd, often an IC50 or EC50 that approximates it; ≥ and ≤ were set here for values at or beyond the usual limits of such assays; settings: source organism: SARS-CoV1
HLA-A*11:01 = assay: as above; settings: source organism: SARS-CoV1
HLA-B*15:01 = assay: as above; settings: source organism: SARS-CoV1
HLA-B*58:01 = assay: as above; settings: source organism: SARS-CoV1
HLA-A*23:01 = assay: IEDB peptide-MHC binding, purified MHC/competitive/radioactivity; filed as Kd, often an IC50 or EC50 that approximates it; ≥ and ≤ were set here for values at or beyond the usual limits of such assays; settings: source organism: SARS coronavirus Tor2
HLA-A*24:02 = assay: as above; settings: source organism: SARS coronavirus Tor2
HLA-A*29:02 = assay: as above; settings: source organism: SARS coronavirus Tor2
HLA-A*30:02 = assay: as above; settings: source organism: SARS coronavirus Tor2
HLA-A*01:01 [2] = assay: as above; settings: source organism: SARS coronavirus Tor2
HLA-A*02:01 = assay: IEDB peptide-MHC binding, purified MHC/competitive/fluorescence; filed as Kd, often an IC50 or EC50 that approximates it; ≥ and ≤ were set here for values at or beyond the usual limits of such assays
[3] = source organism: Dengue virus 1 Brazil/97-11/1997
[4] = source organism: Dengue virus 2 Peru/IQT2913/1996
[5] = source organism: Dengue virus 3 Martinique/1243/1999
[6] = source organism: Vaccinia virus WR
[7] = source organism: Dengue virus 4 Philippines/H241/1956
[8] = source organism: SARS coronavirus Tor2

Sequence: LPDTIETLM
Kd (HLA-B*35:01; [3]): 0.818 µM
Kd (HLA-B*51:01; [3]): 19 µM
Kd (HLA-B*53:01; [3]): 0.428 µM

Sequence: QPHQLWTTL
Kd (HLA-B*07:02; [3]): 0.00343 µM

Sequence: TPVESWEEI
Kd (HLA-B*51:01; [4]): 10.5 µM
Kd (HLA-B*53:01; [4]): 0.157 µM

Sequence: FTILALFLAH
Kd (HLA-A*26:01; [5]): ≥ 20.9 µM
Kd (HLA-B*35:01; [5]): ≥ 24.9 µM

Sequence: KQNMLHVII
Kd (HLA-A*32:01; [6]): 0.00212 µM

Sequence: WAYHGSYEA
Kd (HLA-B*35:01; [7]): 0.167 µM

Sequence: RGRLLAAGK
Kd (HLA-A*30:01; [6]): 0.125 µM

Sequence: SSLPSYAAY
Kd (HLA-A*01:01 [1]): 1.62 µM
Kd (HLA-A*11:01): 0.39 µM
Kd (HLA-B*15:01): 0.0526 µM
Kd (HLA-B*58:01): 0.287 µM
Kd (HLA-A*23:01): ≥ 77.8 µM
Kd (HLA-A*24:02): ≥ 77.6 µM
Kd (HLA-A*26:01; [8]): 5.04 µM
Kd (HLA-A*29:02): 0.00149 µM
Kd (HLA-A*30:02): 0.00027 µM

Sequence: MPVMKRYSAP
Kd (HLA-B*07:02; [7]): 9.34 µM
Kd (HLA-B*35:01; [7]): 0.502 µM
Kd (HLA-B*51:01; [7]): ≥ 69.6 µM
Kd (HLA-B*53:01; [7]): 16 µM

Sequence: GPVLTLWEGN
Kd (HLA-A*32:01; [7]): 1.55 µM

Sequence: VQVLALEPGK
Kd (HLA-A*30:01; source organism: Dengue virus 2 Jamaica/1409/1983): 2.52 µM

Sequence: MFLARAIVF
Kd (HLA-A*01:01 [2]): ≥ 78.1 µM
Kd (HLA-A*23:01): 19.4 µM
Kd (HLA-A*24:02): ≥ 77.6 µM
Kd (HLA-A*26:01; [8]): ≥ 34.1 µM
Kd (HLA-A*29:02): 8.47 µM
Kd (HLA-A*30:02): 16.6 µM

Sequence: WPLHRMDLGV
Kd (HLA-B*51:01; [7]): 3.28 µM

Sequence: MTMILFLKL
Kd (HLA-A*32:01; [6]): 0.248 µM

Sequence: RTKPISMYF
Kd (HLA-A*30:01; source organism: Vaccinia virus Copenhagen): 0.000598 µM

Sequence: RQMATTTNPLI
Kd (HLA-A*02:01; source organism: Influenza A virus (A/parakeet/Chiba/1/97(H9N2))): 0.013 µM

Kd (HLA-A*02:01; source organism: Homo sapiens): 0.207 µM
Sequence: AVAANIVLTV

Sequence: KVLRPTPRG
Kd (HLA-A*30:01; source organism: Dengue virus 4 Dominica/814669/1981): 0.3 µM

Sequence: MTNGKINSL
Kd (HLA-A*32:01; [6]): 0.0223 µM

Sequence: IPNHGVTAT
Kd (HLA-B*35:01; [7]): 2.28 µM

Sequence: GKTRRYLPAI
Kd (HLA-A*30:01; [3]): 0.67 µM

Sequence: LFLAFVVFLL
Kd (HLA-A*01:01 [2]): 0.537 µM
Kd (HLA-A*23:01): 0.846 µM
Kd (HLA-A*24:02): 11.7 µM
Kd (HLA-A*26:01; [8]): 0.251 µM
Kd (HLA-A*29:02): 0.793 µM
Kd (HLA-A*30:02): 2 µM
